Test results published in the supplement of paper PMC9876800.

Test system: peptide library, one residue held at a place counted from the S/T acceptor
Assay: relative phosphorylation of the sub-library (ratio to the mean residue at this position); human; higher = residue favoured
Summary of the method: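 Spots on streptavidin membranes were phosphorimaged and quantified by densitometry to measure phosphorylation of biotinylated degenerate peptide sub-libraries by purified recombinant kinases, human or orthologue constructs. The reactions ran in 384-well plates for 90 min under kinase-specific conditions, with peptides at 50 μM and 50 μM ATP spiked with γ-32P-ATP. Relative sub-library phosphorylation is the ratio to the mean residue at that position.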

Chain of TTK, construct: Full length (P33981 whole entry, looked up): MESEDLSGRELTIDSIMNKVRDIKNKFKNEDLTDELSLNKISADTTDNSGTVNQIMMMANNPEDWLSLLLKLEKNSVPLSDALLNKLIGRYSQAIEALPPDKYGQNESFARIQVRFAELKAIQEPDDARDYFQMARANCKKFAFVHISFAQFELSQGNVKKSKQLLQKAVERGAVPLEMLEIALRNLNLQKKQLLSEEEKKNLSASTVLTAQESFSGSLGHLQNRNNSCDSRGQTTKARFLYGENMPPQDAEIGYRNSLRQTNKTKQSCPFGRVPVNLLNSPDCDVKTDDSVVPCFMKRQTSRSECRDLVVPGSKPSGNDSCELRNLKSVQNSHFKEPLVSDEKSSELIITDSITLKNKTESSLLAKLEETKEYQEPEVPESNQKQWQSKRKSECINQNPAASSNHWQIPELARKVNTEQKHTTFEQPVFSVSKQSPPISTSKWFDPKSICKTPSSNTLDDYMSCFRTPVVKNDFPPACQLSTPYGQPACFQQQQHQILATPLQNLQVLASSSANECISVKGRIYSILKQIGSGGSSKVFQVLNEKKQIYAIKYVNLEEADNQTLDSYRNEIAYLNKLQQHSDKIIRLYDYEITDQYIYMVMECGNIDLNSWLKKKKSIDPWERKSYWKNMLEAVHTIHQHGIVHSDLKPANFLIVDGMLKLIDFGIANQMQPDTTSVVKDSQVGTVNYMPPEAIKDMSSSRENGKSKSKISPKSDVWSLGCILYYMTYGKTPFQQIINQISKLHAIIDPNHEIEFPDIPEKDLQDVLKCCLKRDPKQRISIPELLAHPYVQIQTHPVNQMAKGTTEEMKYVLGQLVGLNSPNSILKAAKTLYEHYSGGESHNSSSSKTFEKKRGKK
Chain of MOK, construct: aa1-343 (Q9UQ07 1-343, looked up): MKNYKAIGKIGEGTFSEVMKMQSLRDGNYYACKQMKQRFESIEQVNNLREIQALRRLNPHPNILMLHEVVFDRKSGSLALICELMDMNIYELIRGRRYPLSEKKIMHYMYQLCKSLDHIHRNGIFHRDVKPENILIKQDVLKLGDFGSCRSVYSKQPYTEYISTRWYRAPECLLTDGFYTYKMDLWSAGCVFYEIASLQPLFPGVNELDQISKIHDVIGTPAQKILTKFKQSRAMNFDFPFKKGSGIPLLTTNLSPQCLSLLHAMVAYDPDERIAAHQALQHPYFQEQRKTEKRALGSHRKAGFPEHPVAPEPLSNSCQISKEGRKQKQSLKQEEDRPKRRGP
Chain of GRK2, construct: Full length (P25098 whole entry, looked up): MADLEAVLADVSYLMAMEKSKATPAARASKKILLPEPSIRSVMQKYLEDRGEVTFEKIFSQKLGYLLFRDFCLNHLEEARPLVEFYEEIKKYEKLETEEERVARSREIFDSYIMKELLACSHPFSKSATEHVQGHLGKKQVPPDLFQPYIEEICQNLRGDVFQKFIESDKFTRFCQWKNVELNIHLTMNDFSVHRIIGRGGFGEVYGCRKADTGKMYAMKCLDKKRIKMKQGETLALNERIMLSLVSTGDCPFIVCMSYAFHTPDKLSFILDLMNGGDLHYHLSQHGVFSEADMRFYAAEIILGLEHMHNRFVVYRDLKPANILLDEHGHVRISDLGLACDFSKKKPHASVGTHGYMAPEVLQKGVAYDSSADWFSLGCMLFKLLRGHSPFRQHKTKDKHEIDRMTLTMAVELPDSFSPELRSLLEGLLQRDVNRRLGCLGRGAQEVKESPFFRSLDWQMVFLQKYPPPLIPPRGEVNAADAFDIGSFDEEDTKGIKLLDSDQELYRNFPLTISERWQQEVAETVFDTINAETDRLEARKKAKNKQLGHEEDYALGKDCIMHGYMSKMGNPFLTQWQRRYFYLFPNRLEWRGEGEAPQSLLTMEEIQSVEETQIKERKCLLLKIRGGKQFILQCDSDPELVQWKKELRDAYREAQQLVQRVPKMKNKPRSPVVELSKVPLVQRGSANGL

MKNK1, construct: Full length (D165-205) (from UniProt Q9BUB5)
relative phosphorylation
Conditions | at +1 | at +2 | at +3 | at +4 | at -1 | at -2 | at -3 | at -4 | at -5
A fixed | 0.571 | 0.643 | 0.663 | 0.758 | 0.958 | 0.862 | 0.744 | 0.882 | 1.25
D fixed | 0.289 | 0.373 | 0.434 | 0.925 | 0.355 | 0.324 | 0.281 | 0.361 | 0.43
E fixed | 0.603 | 0.351 | 0.429 | 0.903 | 0.342 | 0.279 | 0.315 | 0.37 | 0.404
F fixed | 1.41 | 0.677 | 0.771 | 0.706 | 0.395 | 0.433 | 0.392 | 0.676 | 0.727
G fixed | 0.464 | 0.534 | 1.49 | 0.967 | 1.12 | 0.736 | 1.22 | 1.3 | 0.945
H fixed | 0.892 | 1.83 | 1.23 | 1.13 | 0.897 | 0.748 | 1.04 | 1.12 | 0.866
I fixed | 1.05 | 0.875 | 0.597 | 0.687 | 0.304 | 0.372 | 0.286 | 0.625 | 1
K fixed | 1.04 | 1.03 | 2.18 | 1.82 | 3.23 | 2.45 | 3.62 | 2.16 | 1.58
L fixed | 0.991 | 0.907 | 1.01 | 0.722 | 0.602 | 0.519 | 0.394 | 0.751 | 1.2
M fixed | 1.86 | 0.997 | 0.886 | 0.805 | 0.619 | 0.395 | 0.494 | 0.784 | 0.97
N fixed | 0.651 | 0.817 | 0.725 | 1.12 | 0.905 | 1.03 | 0.96 | 1.07 | 0.872
P fixed | 0.345 | 0.387 | 0.806 | 1.3 | 1.87 | 0.55 | 1.4 | 1.28 | 1.25
Q fixed | 1.8 | 0.794 | 0.856 | 1.29 | 0.991 | 0.747 | 0.926 | 0.83 | 0.762
R fixed | 1.34 | 1.9 | 1.95 | 1.49 | 2.91 | 5.62 | 3.5 | 2.25 | 1.66
V fixed | 0.995 | 0.781 | 0.506 | 0.704 | 0.429 | 0.521 | 0.318 | 0.76 | 1.25
W fixed | 1.2 | 1.79 | 1.17 | 0.826 | 0.414 | 0.685 | 0.549 | 0.894 | 0.832
Y fixed | 1.49 | 2.32 | 1.3 | 0.845 | 0.655 | 0.725 | 0.557 | 0.891 | 1.01
pThr fixed | 0.668 | 0.629 | 0.564 | 1.11 | 0.278 | 0.387 | 0.511 | 0.639 | 0.677
pTyr fixed | 0.868 | 1.32 | 0.756 | 1.46 | 0.294 | 0.373 | 0.447 | 0.596 | 0.942

TTK, construct: Full length (from UniProt P33981)
relative phosphorylation
Conditions | at +1 | at +2 | at +3 | at +4 | at -1 | at -2 | at -3 | at -4 | at -5
A fixed | 0.968 | 0.742 | 0.497 | 0.739 | 0.798 | 0.532 | 0.845 | 0.952 | 0.97
D fixed | 0.397 | 0.389 | 0.331 | 0.48 | 1.22 | 4.68 | 2.19 | 1.55 | 1.15
E fixed | 0.883 | 0.339 | 0.26 | 0.39 | 0.866 | 2.91 | 1.94 | 1.47 | 0.983
F fixed | 0.541 | 0.748 | 1.48 | 0.895 | 0.671 | 0.373 | 0.55 | 0.76 | 0.791
G fixed | 1.18 | 0.501 | 0.552 | 1.15 | 0.568 | 0.922 | 1.32 | 1.24 | 1.26
H fixed | 0.952 | 1.44 | 0.97 | 1.42 | 1.78 | 0.675 | 1.18 | 1.05 | 1.25
I fixed | 1.29 | 0.784 | 1.89 | 0.746 | 0.696 | 0.294 | 0.419 | 0.51 | 0.604
K fixed | 1.28 | 1.61 | 0.956 | 1.76 | 1.26 | 0.456 | 0.966 | 1.02 | 1.1
L fixed | 1.02 | 0.802 | 2.26 | 0.738 | 0.849 | 0.336 | 0.537 | 0.694 | 0.757
M fixed | 1.49 | 1.02 | 1.29 | 0.868 | 0.905 | 0.453 | 0.651 | 0.865 | 0.884
N fixed | 0.685 | 1.29 | 0.723 | 1.28 | 1.47 | 1.82 | 1.29 | 1.22 | 1.1
P fixed | 0.275 | 0.773 | 0.532 | 0.823 | 0.891 | 0.504 | 0.959 | 0.984 | 1.39
Q fixed | 1.71 | 0.974 | 0.748 | 1.1 | 1.16 | 0.873 | 0.975 | 0.981 | 0.857
R fixed | 1.51 | 1.91 | 1.01 | 1.64 | 1.15 | 0.854 | 1.29 | 1.16 | 1.09
V fixed | 1.45 | 0.963 | 1.23 | 0.651 | 0.837 | 0.337 | 0.487 | 0.675 | 0.784
W fixed | 0.704 | 1.75 | 1.29 | 1.21 | 0.766 | 0.529 | 0.66 | 0.964 | 0.984
Y fixed | 0.659 | 0.971 | 0.984 | 1.12 | 1.12 | 0.453 | 0.734 | 0.899 | 1.04
pThr fixed | 0.734 | 0.393 | 0.576 | 0.455 | 0.7 | 1.12 | 1.75 | 1.37 | 1.41
pTyr fixed | 0.362 | 0.27 | 0.696 | 0.45 | 0.787 | 0.765 | 0.997 | 0.781 | 1.47

GRK2, construct: Full length (from UniProt P25098)
relative phosphorylation
Conditions | at +1 | at +2 | at +3 | at +4 | at -1 | at -2 | at -3 | at -4 | at -5
A fixed | 0.812 | 1.17 | 0.782 | 0.874 | 0.876 | 0.822 | 1.03 | 0.901 | 0.914
D fixed | 1.1 | 0.929 | 1.42 | 1.35 | 1.14 | 1.38 | 1.9 | 1.41 | 1.34
E fixed | 1.47 | 0.883 | 1.37 | 1.25 | 1.34 | 3.01 | 2.28 | 1.54 | 1.13
F fixed | 1.27 | 1.18 | 1.13 | 1.02 | 1.02 | 0.961 | 0.768 | 0.915 | 1.14
G fixed | 0.766 | 0.755 | 0.817 | 0.928 | 0.726 | 0.718 | 0.766 | 0.897 | 0.839
H fixed | 0.977 | 1.09 | 1.02 | 1.07 | 1.06 | 0.813 | 0.831 | 0.969 | 0.931
I fixed | 1.03 | 1.18 | 0.892 | 0.892 | 0.862 | 0.724 | 0.732 | 0.847 | 0.898
K fixed | 0.79 | 0.747 | 0.778 | 0.84 | 0.919 | 0.741 | 0.815 | 0.965 | 0.912
L fixed | 0.883 | 0.886 | 1.01 | 0.935 | 0.928 | 0.832 | 0.742 | 0.899 | 0.88
M fixed | 1.08 | 0.965 | 0.981 | 0.975 | 0.971 | 0.872 | 0.8 | 0.951 | 0.931
N fixed | 0.879 | 0.969 | 0.996 | 1.07 | 1.04 | 0.926 | 0.924 | 0.99 | 0.95
P fixed | 0.791 | 0.627 | 0.765 | 0.926 | 1.24 | 0.931 | 0.864 | 0.975 | 0.896
Q fixed | 1.12 | 0.872 | 0.939 | 0.994 | 0.978 | 0.928 | 0.889 | 0.944 | 0.91
R fixed | 0.838 | 0.768 | 0.791 | 0.843 | 0.979 | 0.974 | 1.43 | 0.998 | 1.04
V fixed | 1.15 | 1.37 | 0.855 | 0.854 | 0.911 | 0.701 | 0.665 | 0.813 | 0.918
W fixed | 1.04 | 1.3 | 1.25 | 1.18 | 0.876 | 0.832 | 0.789 | 1.06 | 1.19
Y fixed | 1.01 | 1.31 | 1.22 | 0.998 | 1.12 | 0.843 | 0.787 | 0.932 | 1.18
pThr fixed | 7.25 | 1.18 | 1.22 | 1.95 | 1.18 | 3.63 | 3.44 | 2.09 | 1.27
pTyr fixed | 2.37 | 1.57 | 1.47 | 1.62 | 2.11 | 14.3 | 3.56 | 2.58 | 1.57

MOK, construct: aa1-343 (from UniProt Q9UQ07)
relative phosphorylation
Conditions | at +1 | at +2 | at +3 | at +4 | at -1 | at -2 | at -3 | at -4 | at -5
A fixed | 2.2 | 1.04 | 1.2 | 0.799 | 1.12 | 1.03 | 0.724 | 0.79 | 0.816
D fixed | 0.137 | 0.59 | 0.511 | 0.519 | 0.269 | 0.168 | 0.231 | 0.441 | 0.526
E fixed | 0.15 | 0.672 | 0.507 | 0.506 | 0.332 | 0.208 | 0.246 | 0.506 | 0.552
F fixed | 0.2 | 0.836 | 1.02 | 0.891 | 0.786 | 0.328 | 0.314 | 0.739 | 1.02
G fixed | 1.23 | 1.51 | 1.52 | 1.34 | 1.36 | 0.824 | 0.645 | 0.89 | 1.04
H fixed | 0.389 | 1.44 | 1.28 | 1.09 | 1.19 | 0.418 | 0.564 | 0.862 | 1.09
I fixed | 0.215 | 0.624 | 0.704 | 0.855 | 0.511 | 0.863 | 0.54 | 0.73 | 0.865
K fixed | 0.574 | 1.15 | 1.15 | 1.44 | 1.61 | 0.8 | 1.27 | 1.43 | 1.36
L fixed | 0.204 | 0.822 | 0.848 | 0.904 | 0.712 | 1.2 | 0.587 | 0.739 | 0.761
M fixed | 0.253 | 0.935 | 0.967 | 1.05 | 1.22 | 0.675 | 0.501 | 0.946 | 0.903
N fixed | 0.32 | 0.999 | 0.93 | 1.06 | 0.672 | 0.498 | 0.452 | 0.628 | 0.784
P fixed | 6.41 | 1.12 | 1.13 | 1.11 | 1.33 | 5.97 | 1.26 | 0.96 | 1.11
Q fixed | 0.567 | 1.21 | 0.857 | 0.964 | 1 | 0.629 | 0.563 | 0.818 | 0.916
R fixed | 3.21 | 1.58 | 1.53 | 1.74 | 2.2 | 1.81 | 7.98 | 4.34 | 2.3
V fixed | 0.515 | 0.551 | 0.668 | 0.801 | 0.631 | 0.918 | 0.441 | 0.622 | 0.622
W fixed | 0.215 | 0.884 | 0.985 | 1.02 | 0.976 | 0.331 | 0.316 | 0.811 | 1.02
Y fixed | 0.21 | 1.04 | 1.19 | 0.921 | 1.08 | 0.323 | 0.377 | 0.745 | 1.31
pThr fixed | 0.333 | 0.394 | 0.486 | 0.512 | 0.236 | 0.431 | 0.358 | 0.532 | 0.775
pTyr fixed | 0.334 | 0.447 | 0.651 | 0.45 | 0.354 | 0.268 | 0.329 | 0.473 | 0.804
